Experiments:
[1] = breast cancer patients; reported; cited from earlier work
MDA-MB-231 cells [2] = assay: 3D-Spheroid invasion assay (3D-Cultrex spheroid invasion kit); format: cell-based; conditions: nAb clone 28F8-2 300 ng/μl; recombinant human S100A7 100 ng/ml; vs control IgG or PBS; invaded area on 10th day
Procedure: (§1) MDA-MB-231 cells were treated with hS100A7 neutralizing antibody (clone 28F8-2; 300 ng/μl) or control IgG or PBS in the presence or absence of recombinant human S100A7 (100 ng/ml) and spheroid invasion assay was performed by using 3D-Cultrex spheroid invasion kit. […] FIG. 9B show the bar diagram representing the invaded area of spheroids. The area between red and blue circles represents the invaded area. […] GAPDH was used as a loading control. S100A7 overexpressing MDA-MB-231 cells (1×10^6) were injected into the female NCG mice. After the onset of palpable tumors, mice were either treated with vehicle control (VC), S100A7 nAb ([…], i.p. route; clone 28F8-2; two times a week) alone or in combination with ASB-14780 (50 mg/kg·bt, oral route; three times a week). […] FIGS. 9F, 9G, and 9H show the analysis of tumor volume, tumor weight, and liver metastasis of control IgG, S100A7 nAb, ASB-14780, and combination-treated. *** is p<0.001; **** is p<0.0001. One way ANOVA and t test were used for calculating statistical significance.
(§2) Trans-well migration assay and 3D-Spheroid invasion assay. MDA-MB-231 cells were treated with hS100A7 neutralizing antibody (clone 28F8-2; 300 ng/μl) or control IgG or PBS in the presence or absence of recombinant human S100A7 (100 ng/ml). […] On the 10th day, the invaded area was calculated by using the image-J plugin.

MDA-MB-231 cells [3] = assay: Trans-well migration assay; format: cell-based; conditions: nAb clone 28F8-2 300 ng/μl; recombinant human S100A7 100 ng/ml; overnight, transwell chambers
Procedure: as §1, §2

PD-L1 = assay: S100A7-induced PD-L1 expression by Western blot; format: cell-based; conditions: MDA-MB-231 cells; nAb clone 28F8-2 300 ng/μl; recombinant human S100A7 100 ng/ml; GAPDH loading control
Procedure: as §1
Western blotting, adipokine array and Immunohistochemistry (IHC). Cell or tissue lysates were analyzed by Western blotting. Briefly, samples were run on NuPAGE 4-12% gradient precast gels (Invitrogen) and probed with primary antibodies (Table 1), followed by secondary antibodies incubation, and were developed. […]

[4] = HFD-induced obesity in wild type female FVB mice; format: in vivo, mouse; conditions: FVB mice on HFD; nAb i.p. two times a week, alone or with reboxetine 20 mg/kg·bt i.p. twice a week; vs control IgG treated group
Procedure: (§3) FIGS. 10C, 10D, 10E, 10F, and 10G show the analysis of body weight, vWAT mass (gm), tumor volume, tumor weight (gm), and Lung metastasis of VC, S100A7 nAb, Reb and combo-treated animals. *P<0.05, ** P<0.01. One way ANOVA was used for calculating statistical significance. Mouse models, obesity tumor growth analyses and flow cytometry. The NCG and wild-type 6 weeks old female FVB mice (6 weeks old) were obtained from the Charles River. S100A7 overexpressing MDA-MB-231 cells (1×10^6) were injected into the 4th mammary fat pad of NCG mice. While Mvt1 cells (1×10^5) were injected into the mammary fat pad of wild type FVB mice fed with HFD. […] Mvt-1 cells (1×10^5) were also injected into the mammary glands of S100A7 floxed (control) and KO mice. Body weights and tumors were measured weekly, and volume was calculated. In the endpoints, animals were sacrificed, and tumors and other organs were excised. All mice were kept in The OSU's animal facility in compliance with the guidelines and protocols approved by the OSU-IACUC. For flow cytometry, freshly prepared single-cell suspensions of spleen samples harvested from non-tumor bearing S100A7 floxed and KO mice were incubated with an Fc receptor blocker followed by staining with different fluorochrome-conjugated antibodies (Table 1). After staining, cells were evaluated by FACS Fortessa using CellQuest software (BD Biosciences)

Mvt1 cells = assay: Mvt1-generated syngeneic breast tumor model in HFD-induced obese mice; format: in vivo, mouse; conditions: HFD-induced obese FVB mice with Mvt1 tumors; nAb i.p. two times a week, alone or with reboxetine 20 mg/kg·bt i.p. twice a week
Procedure: as §3

CCOc1ccccc1OC(c1ccccc1)C1CNCCO1 (stereo not drawn) [reboxetine]
depressive symptoms [1]: reduces | tolerability [1]: well tolerated

B1: S100A7 nAb: novel monoclonal S100A7 neutralizing antibody, hybridoma clone 28F8-2; heavy chain SEQ ID NO: 4, light chain SEQ ID NO: 8 (antibody)
heavy: MRVLILLWLFTAFPGILSDVQLQESGPGLVKPSQSLSLTCTVTGYSITSDYAWNWIRQFPGNKLEWMGYISYSGYTSYNPSLKSRISITRDTSKNQFFLQLNSVTTEDTTTYYCTRGGKGPMDYWGQGTSVTVSSAKTTPPSVYPLAPGSAAQTNSMVTLGCLVKGYFPEPVTVTWNSGSLSSGVHTFPAVLQSDLYTLSSSVTVPSSTWPSETVTCNVAHPASSTKVDKKIVPRDCGCKPCICTVPEVSSVFIFPPKPKDVLTITLTPKVTCVVVDISKDDPEVQFSWFVDDVEVHTAQTQPREEQFNSTFRSVSELPIMHQDWLNGKEFKCRVNSAAFPAPIEKTISKTKGRPKAPQVYTIPPPKEQMAKDKVSLTCMITDFFPEDITVEWQWNGQPAENYKNTQPIMDTDGSYFVYSKLNVQKSNWEAGNTFTCSVLHEGLHNHHTEKSLSHSPGK
light: MKSQTQVFVFLLLCVSGAHGSIVMTQTPKFLLVSAGDRVTITCKASQSVSNDVAWYHQKPGQSPKLLIYYASNRYTGVPDRFTGSGYGTDFTFTISTVQAEDLAVYFCQQDYSSPYTFGGGTKLEIKRADAAPTVSIFPPSSEQLTSGGASVVCFLNNFYPKDINVKWKIDGSERQNGVLNSWTDQDSKDSTYSMSSTLTLTKDEYERHNSYTCEATHKTSTSPIVKSFNRNEC
modifications: Description of sequence: Heavy Chain; Description of sequence: Light Chain
S100A7-mediated invasiveness of spheroid cells (invaded area) (MDA-MB-231 cells [2]): reduced | S100A7-mediated migration of TNBC cells (MDA-MB-231 cells [3]): inhibits | S100A7-induced PD-L1 expression (PD-L1): decreases | HFD-induced body weight gain [4]: significantly inhibited | visceral fat accumulation (vWAT mass) [4]: significantly inhibited | lung metastasis (Mvt1 cells): significantly reduced | tumor growth (tumor volume, tumor weight) (Mvt1 cells): significantly reduced
